Data taken from paper PMC5567343, “Flow-induced elongation of von Willebrand factor precedes tension-dependent activation” (Nature Communications, 2017).

How the values were obtained:
Details in all cases: both partners purified
[1] = target: T1, Recombinant human von Willebrand factor concatemers, labeled with biotin and Alexa Fluor 488 (human, UniProt P04275 764-2813, biotin (~0.3 per monomer, from Sulfo-NHS-LC-Biotin); Alexa Fluor 488 (0.67 fluorophore/monomer)); experiment: two-colour single-molecule TIRF imaging under flow; dissociation of GPIbα after flow cessation from 1280 to 0 dyn cm^-2, 57 fps, 20 concatemers, three flow cycles each; 100 nM GPIbα, 150 mM NaCl
T1 construct: Disulfide-linked concatemers of varying length; held on the flow-chamber wall through biotin and Traptavidin; also called VWF; VWF concatemer; source: Chinese hamster ovary cells, furin-treated, purified to >99% (Baxter BioScience); labeled, Sepharose CL-2B gel filtration, fraction 1; copies: ~20-200

[2] = target: T1, Recombinant human von Willebrand factor …; experiment: two-colour single-molecule TIRF imaging under flow; biotin/Alexa 488-VWF tethered to Traptavidin on the chamber wall, Alexa 647-GPIbα in solution at five concentrations; association kinetics after shift from 0 to 1280 dyn cm^-2; 150 mM NaCl, 20 mM HEPES pH 7.4, 0.02% Tween 20; VWF regions at average tension 12 ± 2.2 pN; apparent kon and koff, 1:1 fit, KD = koff/kon
[3] = target: T1, Recombinant human von Willebrand factor …; experiment: two-colour single-molecule TIRF imaging under flow; as a1 but 10 mM NaCl; VWF regions at average tension 12 ± 2.2 pN; apparent kon and koff, KD = koff/kon
[4] = target: T1, Recombinant human von Willebrand factor …; experiment: two-colour single-molecule TIRF imaging under flow; as a1; 150 mM NaCl; VWF regions at average tension 52 ± 2.3 pN; apparent kon and koff, KD = koff/kon
[5] = target: T1, Recombinant human von Willebrand factor …; experiment: two-colour single-molecule TIRF imaging under flow; as a1 but 10 mM NaCl; VWF regions at average tension 20 ± 2.3 pN; apparent kon and koff, KD = koff/kon
[6] = target: T1, Recombinant human von Willebrand factor …; experiment: two-colour single-molecule TIRF imaging under flow; as a1; 150 mM NaCl; VWF regions at average tension 36 ± 2.3 pN; apparent kon and koff, KD = koff/kon
[7] = target: T1, Recombinant human von Willebrand factor …; experiment: two-colour single-molecule TIRF imaging under flow; as a1; 150 mM NaCl; VWF regions at average tension 20 ± 2.3 pN; apparent kon and koff, KD = koff/kon
[8] = target: T1, Recombinant human von Willebrand factor …; experiment: two-colour single-molecule TIRF imaging under flow; as a1; 150 mM NaCl; VWF regions at average tension 28 ± 2.3 pN; apparent kon and koff, KD = koff/kon
[9] = target: T1, Recombinant human von Willebrand factor …; experiment: two-colour single-molecule TIRF imaging under flow; as a1; 150 mM NaCl; combined fit of the two highest force bins, tension 40-56 pN, where activation by force is maximal; apparent kon and koff, KD = koff/kon
[10] = target: T1, Recombinant human von Willebrand factor …; experiment: two-colour single-molecule TIRF imaging under flow; as a1 but 10 mM NaCl; VWF regions at average tension 36 ± 2.3 pN; apparent kon and koff, KD = koff/kon
[11] = target: T1, Recombinant human von Willebrand factor …; experiment: two-colour single-molecule TIRF imaging under flow; as a1 but 10 mM NaCl; VWF regions at average tension 28 ± 2.3 pN; apparent kon and koff, KD = koff/kon
[12] = target: T1, Recombinant human von Willebrand factor …; experiment: two-colour single-molecule TIRF imaging under flow; as a1 but 10 mM NaCl; VWF regions at average tension 52 ± 2.3 pN; apparent kon and koff, KD = koff/kon
[13] = target: T1, Recombinant human von Willebrand factor …; experiment: two-colour single-molecule TIRF imaging under flow; as a1 but 10 mM NaCl; VWF regions at average tension 44 ± 2.3 pN; apparent kon and koff, KD = koff/kon
[14] = target: T1, Recombinant human von Willebrand factor …; experiment: two-colour single-molecule TIRF imaging under flow; as a1; 150 mM NaCl; VWF regions at average tension 44 ± 2.3 pN; apparent kon and koff, KD = koff/kon
[15] = target: T1, Recombinant human von Willebrand factor …; experiment: two-colour single-molecule TIRF imaging under flow; as a1 but 10 mM NaCl; combined fit of the two highest force bins, tension 40-56 pN; apparent kon and koff, KD = koff/kon

B1: Wild-type human platelet GPIbα (His1 to Arg290), Alexa Fluor 647-labeled (domain or fragment, UniProt P07359 17-306, looked up)
chain: HPICEVSKVASHLEVNCDKRNLTALPPDLPKDTTILHLSENLLYTFSLATLMPYTRLTQLNLDRCELTKLQVDGTLPVLGTLDLSHNQLQSLPLLGQTLPALTVLDVSFNRLTSLPLGALRGLGELQELYLKGNELKTLPPGLLTPTPKLEKLSLANNNLTELPAGLLNGLENLDTLLLQENSLYTIPKGFFGSHLLPFAFLHGNPWLCNCEILYFRRWLQDNAENVYVWKQGVDVKAMTSNVASVQCDNSDKFPVYKYPGKGCPTLGDEGDTDLYDYYPEEDTEGDKVR
modifications: Alexa Fluor 647 (NHS ester; fluorophore:GPIbα 1.01:1)
notes: platelet glycoprotein Ib alpha chain, human, wild type, His1 to Arg290; also called GPIα-Alexa Fluor 647; source: HEK293T, transiently transfected, culture supernatant, purified (Ni-NTA, Superdex 200 SEC)
B1 was tested, and the koff [1] was ≥ 23 s⁻¹, the Kd [2] was 18000 nM and the koff [2] was 2.3 s⁻¹. The kon [2] was 100000 M⁻¹ s⁻¹, the Kd [3] was 5.3 nM and the koff [3] was 1.1 s⁻¹. It also gave a kon [3] of 2.13e+08 M⁻¹ s⁻¹, a Kd [4] of 71 nM and a koff [4] of 3.6 s⁻¹. The kon [4] was 5.1e+07 M⁻¹ s⁻¹, the Kd [5] was 4.1 nM and the koff [5] was 1.1 s⁻¹. It also gave a kon [5] of 2.61e+08 M⁻¹ s⁻¹, a Kd [6] of 68 nM and a koff [6] of 3.3 s⁻¹. It also gave a kon [6] of 4.9e+07 M⁻¹ s⁻¹, a Kd [7] of 290 nM and a koff [7] of 3.8 s⁻¹. The kon [7] was 1.3e+07 M⁻¹ s⁻¹, the Kd [8] was 102 nM and the koff [8] was 3.5 s⁻¹. The kon [8] was 3.5e+07 M⁻¹ s⁻¹, the Kd [9] was 78 nM and the koff [9] was 3.9 s⁻¹. For the same binder, the kon [9] was 5e+07 M⁻¹ s⁻¹, the Kd [10] was 0.8 nM and the koff [10] was 0.4 s⁻¹. For the same binder, the kon [10] was 5.08e+08 M⁻¹ s⁻¹, the Kd [11] was 1.1 nM and the koff [11] was 0.5 s⁻¹. For the same binder, the kon [11] was 4.65e+08 M⁻¹ s⁻¹, the Kd [12] was 0.6 nM and the koff [12] was 0.3 s⁻¹. It also gave a kon [12] of 5.38e+08 M⁻¹ s⁻¹, a Kd [13] of 0.6 nM and a koff [13] of 0.3 s⁻¹. It also gave a kon [13] of 5.38e+08 M⁻¹ s⁻¹, a Kd [14] of 85 nM and a koff [14] of 4.2 s⁻¹. For the same binder, the kon [14] was 4.9e+07 M⁻¹ s⁻¹, the Kd [15] was 0.6 nM and the koff [15] was 0.3 s⁻¹. For the same binder, the kon [15] was 5.38e+08 M⁻¹ s⁻¹.
